Several values for one entry are separate records, joined by “and”; a condition that tells them apart may be missing. Equal values may be shown once.
Experiments:
[1] = molecular target: CXCL4; assay: native MS; pure chemokine, 20 μM in 250 mM ammonium acetate buffer, nanoelectrospray, Waters Synapt G2-S, ion mobility separation bypassed
[2] = molecular target: CXCL4; assay: native MS; chemokine (20 μM solution in 250 mM ammonium acetate) mixed with fondaparinux at 1:1 molar ratio, nanoelectrospray, spectra deconvoluted in UniDec

- stoichiometry N [1]: 4
- stoichiometry N [2]: 4 and 2
Substance: CXCL4 (natural protein)

— publication PMC11228995
